From the supplement of paper PMC10065799, “High-throughput profiling of sequence recognition by tyrosine kinases and SH2 domains using bacterial peptide display” (eLife, 2023)

Test system: c-Src
Assay: phosphorylation enrichment, bacterial display (enrichment ratio); higher = better substrate or ligand; peptides without Tyr show the background
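Throughout, for SH2 binding enrichment of the phosphorylated peptide, bacterial display: peptide library displayed on the E. coli surface as eCPX fusions, selected cells deep-sequenced, score is each peptide's frequency after selection divided by its frequency in the input.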
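Throughout, for phosphorylation enrichment, bacterial display: 11-residue human phosphosite peptides and single-mutation variants displayed on the E. coli surface, counted by deep sequencing, each peptide's frequency after selection divided by its frequency in the unselected input library; frequency after pTyr selection over input frequency; kinase dosed for 20-30% of maximal phosphorylation in three min.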

Sequence | phosphorylation enrichment
KVGNEYITKGQ [MYH7_Y410_V411I] | 0.403
GFQPDYGQPAG [SYP_Y278_YF] | 0.294
NYYDTYIKTCL [IQGAP2_Y1445] | 2.34
GFSDPYVKASL [SYT3_Y470] | 0.393
KLGDVYVNVAF [PGK1_Y161_D164V] | 0.584
HQNGMYGLHQD [SGSH_Y89] | 0.647
TSSGGYRRTPS [ABI1_Y333] | 0.419
EIVYVYVKKRS [DNAI2_Y7] | 0.399
GMSQAYSSSQR [DES_Y5] | 0.37
EMFNPYYGLFE [NEDD4L_Y679] | 6.95
RRLEPYGENFN [APOA4_Y310_V307L] | 0.463
IVRSLYEDVED [VHL_Y185_L188V] | 0.51
DLRGIYQKLVI | 5.56
GEKKAYVRLAP [RPL23A_Y137] | 0.296
IPGMEYLVSII [TNC_Y1775_V1773M] | 0.583
RAYSWYQHQRA [NDST1_Y714] | 0.527
NYCPGYNNFYN [USH2A_Y467_R464C] | 1.26
IVLRSYPASGH [NID2_Y449] | 0.415
RALCHYYKLNI [ETV6_Y401_R399C] | 2.63
FAFQLYDLDRD [CHP2_Y123_YF] | 2.17
MPPHIYAITDT [MYH9_Y151] | 2.26
LENSTYQYIRV [CRB1_Y760] | 3.07
ADFFDYGRGLS [KHDRBS3_Y304_H306R_YF] | 0.521
RRMLQYLTVND [PPFIBP2_Y663] | 0.486
DDFNLYINVKL [MTHFD1_Y52_S49F] | 0.472
NVADHYGVYKP [ATP6V0D2_Y271] | 4.89
KWHREYNFKYV [RICTOR_Y835_S837F] | 0.38
SQETYYRVSNM [ABCD1_Y181_Q178E] | 2.96
GEVKAYGAGLL [TH_Y419] | 0.342

Biological target: Grb2 SH2 (UniProt P62993)
Sequence (P62993 whole entry, looked up): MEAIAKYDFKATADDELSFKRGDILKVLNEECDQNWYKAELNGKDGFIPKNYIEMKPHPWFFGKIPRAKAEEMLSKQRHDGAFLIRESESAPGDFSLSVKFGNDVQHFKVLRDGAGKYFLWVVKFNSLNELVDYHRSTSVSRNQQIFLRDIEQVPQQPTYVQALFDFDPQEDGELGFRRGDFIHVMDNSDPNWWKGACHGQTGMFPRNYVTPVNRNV
Assay: SH2 binding enrichment of the phosphorylated peptide, bacterial display (enrichment ratio); higher = better substrate or ligand; peptides without Tyr show the background

Sequence | SH2 binding enrichment
KVGNEYITKGQ [MYH7_Y410_V411I] | 0.896
GFQPDYGQPAG [SYP_Y278_YF] | 0.836
NYYDTYIKTCL [IQGAP2_Y1445] | 0.841
GFSDPYVKASL [SYT3_Y470] | 0.796
KLGDVYVNVAF [PGK1_Y161_D164V] | 1.16
HQNGMYGLHQD [SGSH_Y89] | 0.97
TSSGGYRRTPS [ABI1_Y333] | 0.826
EIVYVYVKKRS [DNAI2_Y7] | 0.687
GMSQAYSSSQR [DES_Y5] | 0.598
EMFNPYYGLFE [NEDD4L_Y679] | 1.17
RRLEPYGENFN [APOA4_Y310_V307L] | 0.822
IVRSLYEDVED [VHL_Y185_L188V] | 0.937
DLRGIYQKLVI | 1.23
GEKKAYVRLAP [RPL23A_Y137] | 1.12
IPGMEYLVSII [TNC_Y1775_V1773M] | 0.991
RAYSWYQHQRA [NDST1_Y714] | 1.58
NYCPGYNNFYN [USH2A_Y467_R464C] | 1.68
IVLRSYPASGH [NID2_Y449] | 0.716
RALCHYYKLNI [ETV6_Y401_R399C] | 1.74
FAFQLYDLDRD [CHP2_Y123_YF] | 0.991
MPPHIYAITDT [MYH9_Y151] | 0.965
LENSTYQYIRV [CRB1_Y760] | 1.55
ADFFDYGRGLS [KHDRBS3_Y304_H306R_YF] | 0.82
RRMLQYLTVND [PPFIBP2_Y663] | 0.994
DDFNLYINVKL [MTHFD1_Y52_S49F] | 0.794
NVADHYGVYKP [ATP6V0D2_Y271] | 0.917
KWHREYNFKYV [RICTOR_Y835_S837F] | 1.49
SQETYYRVSNM [ABCD1_Y181_Q178E] | 0.657
GEVKAYGAGLL [TH_Y419] | 0.818

Biological target: SHP2-C SH2
Assay: as above

Sequence | SH2 binding enrichment
KVGNEYITKGQ [MYH7_Y410_V411I] | 0.495
GFQPDYGQPAG [SYP_Y278_YF] | 0.519
NYYDTYIKTCL [IQGAP2_Y1445] | 0.595
GFSDPYVKASL [SYT3_Y470] | 0.801
KLGDVYVNVAF [PGK1_Y161_D164V] | 0.845
HQNGMYGLHQD [SGSH_Y89] | 0.962
TSSGGYRRTPS [ABI1_Y333] | 0.56
EIVYVYVKKRS [DNAI2_Y7] | 0.805
GMSQAYSSSQR [DES_Y5] | 0.417
EMFNPYYGLFE [NEDD4L_Y679] | 0.855
RRLEPYGENFN [APOA4_Y310_V307L] | 0.286
IVRSLYEDVED [VHL_Y185_L188V] | 0.63
DLRGIYQKLVI | 1.09
GEKKAYVRLAP [RPL23A_Y137] | 0.851
IPGMEYLVSII [TNC_Y1775_V1773M] | 1.15
RAYSWYQHQRA [NDST1_Y714] | 1.79
NYCPGYNNFYN [USH2A_Y467_R464C] | 0.821
IVLRSYPASGH [NID2_Y449] | 0.831
RALCHYYKLNI [ETV6_Y401_R399C] | 1.23
FAFQLYDLDRD [CHP2_Y123_YF] | 0.885
MPPHIYAITDT [MYH9_Y151] | 0.664
LENSTYQYIRV [CRB1_Y760] | 8.46
ADFFDYGRGLS [KHDRBS3_Y304_H306R_YF] | 0.554
RRMLQYLTVND [PPFIBP2_Y663] | 0.976
DDFNLYINVKL [MTHFD1_Y52_S49F] | 0.732
NVADHYGVYKP [ATP6V0D2_Y271] | 0.647
KWHREYNFKYV [RICTOR_Y835_S837F] | 1.35
SQETYYRVSNM [ABCD1_Y181_Q178E] | 0.79
GEVKAYGAGLL [TH_Y419] | 0.457

Biological target: c-Src SH2
Assay: as above

Sequence | SH2 binding enrichment
KVGNEYITKGQ [MYH7_Y410_V411I] | 0.43
GFQPDYGQPAG [SYP_Y278_YF] | 0.56
NYYDTYIKTCL [IQGAP2_Y1445] | 0.401
GFSDPYVKASL [SYT3_Y470] | 0.452
KLGDVYVNVAF [PGK1_Y161_D164V] | 0.636
HQNGMYGLHQD [SGSH_Y89] | 0.603
TSSGGYRRTPS [ABI1_Y333] | 0.66
EIVYVYVKKRS [DNAI2_Y7] | 0.483
GMSQAYSSSQR [DES_Y5] | 0.392
EMFNPYYGLFE [NEDD4L_Y679] | 1.06
RRLEPYGENFN [APOA4_Y310_V307L] | 0.527
IVRSLYEDVED [VHL_Y185_L188V] | 11.8
DLRGIYQKLVI | 0.721
GEKKAYVRLAP [RPL23A_Y137] | 0.667
IPGMEYLVSII [TNC_Y1775_V1773M] | 0.641
RAYSWYQHQRA [NDST1_Y714] | 1.18
NYCPGYNNFYN [USH2A_Y467_R464C] | 2.35
IVLRSYPASGH [NID2_Y449] | 0.533
RALCHYYKLNI [ETV6_Y401_R399C] | 1.45
FAFQLYDLDRD [CHP2_Y123_YF] | 0.923
MPPHIYAITDT [MYH9_Y151] | 7.82
LENSTYQYIRV [CRB1_Y760] | 1.72
ADFFDYGRGLS [KHDRBS3_Y304_H306R_YF] | 0.625
RRMLQYLTVND [PPFIBP2_Y663] | 0.51
DDFNLYINVKL [MTHFD1_Y52_S49F] | 0.458
NVADHYGVYKP [ATP6V0D2_Y271] | 0.597
KWHREYNFKYV [RICTOR_Y835_S837F] | 1.22
SQETYYRVSNM [ABCD1_Y181_Q178E] | 0.473
GEVKAYGAGLL [TH_Y419] | 0.393
